From FireProtDB
Values joined by “and” are separate entries in the source; they are usually repeats but may differ in a detail not shown here. Identical values can stand only once.

B1: Guanyl-specific ribonuclease T1, P00651 (parent)
chain: MMYSKLLTLTTLLLPTALALPSLVERACDYTCGSNCYSSSDVSTAQAAGYQLHEDGETVGSNSYPHKYNNYEGFDFSVSSPYYEWPILSSGDVYSGGSPGADRVVFNENNQLAGVITHTGASGNNFVECT
B2: SNARE-associated protein Snapin, O95295 (parent)
chain: MAGAGSAAVSGAGTPVAGPTGRDLFAEGLLEFLRPAVQQLDSHVHAVRESQVELREQIDNLATELCRINEDQKVALDLDPYVKKLLNARRRVVLVNNILQNAQERLRRLNHSVAKETARRRAMLDSGIYPPGSPGK
B3: Aspartate aminotransferase, P00509 (parent)
chain: MFENITAAPADPILGLADLFRADERPGKINLGIGVYKDETGKTPVLTSVKKAEQYLLENETTKNYLGIDGIPEFGRCTQELLFGKGSALINDKRARTAQTPGGTGALRVAADFLAKNTSVKRVWVSNPSWPNHKSVFNSAGLEVREYAYYDAENHTLDFDALINSLNEAQAGDVVLFHGCCHNPTGIDPTLEQWQTLAQLSVEKGWLPLFDFAYQGFARGLEEDAEGLRAFAAMHKELIVASSYSKNFGLYNERVGACTLVAADSETVDRAFSQMKAAIRANYSNPPAHGASVVATILSNDALRAIWEQELTDMRQRIQRMRQLFVNTLQEKGANRDFSFIIKQNGMFSFSGLTKEQVLRLREEFGVYAVASGRVNVAGMTPDNMAPLCEAIVAVL
B4: T132I, Q2YD82 (parent)
chain: MDCAEGRAANLPCNHSTISGNEYVYWYRQIHSQGPQYIIHGLKNNETNEMASLIITEDRKSSTLILPHATLRDTAVYYCIVYDYGQNFVFGPGTRLSVLPYIQNPDPAVYQLRDSKSSDKSVCLFTDFDSQTNVSQSKDSDVYITDKTVLDMRSMDFKSNSAVAWSNKSDFACANAFNNSIIPEDTFFPSPESSCDVKLVEKSFETDTNLNFQNLSVIGFRILLLKVAGFNLLMTLRLWSS
B5: T-cell surface antigen CD2, P08921 (parent)
chain: MRCKFLGSFFLLFSLSSKGADCRDSGTVWGALGHGINLNIPNFQMTDDIDEVRWERGSTLVAEFKRKMKPFLKSGAFEILANGDLKIKNLTRDDSGTYNVTVYSTNGTRILNKALDLRILEMVSKPMIYWECSNATLTCEVLEGTDVELKLYQGKEHLRSLRQKTMSYQWTNLRAPFKCKAVNRVSQESEMEVVNCPEKGLPLYLIVGVSAGGLLLVFFGALFIFCICKRKKRNRRRKGEELEIKASRMSTVERGPKPHSTQASAPASQNPVASQAPPPPGHHLQTPGHRPLPPSHRNREHQPKKRPPPSGTQVHQQKGPPLPRPRVQPKPPCGSGDVSLPPPN
B6: Superoxide dismutase [Cu-Zn], P00445 (parent)
chain: MVQAVAVLKGDAGVSGVVKFEQASESEPTTVSYEIAGNSPNAERGFHIHEFGDATNGCVSAGPHFNPFKKTHGAPTDEVRHVGDMGNVKTDENGVAKGSFKDSLIKLIGPTSVVGRSVVIHAGQDDLGKGDTEESLKTGNAGPRPACGVIGLTN
B7: N-(5'-phosphoribosyl)anthranilate isomerase, P00912 (parent)
chain: MSVINFTGSSGPLVKVCGLQSTEAAECALDSDADLLGIICVPNRKRTIDPVIARKISSLVKAYKNSSGTPKYLVGVFRNQPKEDVLALVNDYGIDIVQLHGDESWQEYQEFLGLPVIKRLVFPKDCNILLSAASQKPHSFIPLFDSEAGGTGELLDWNSISDWVGRQESPESLHFMLAGGLTPENVGDALRLNGVIGVDVSGGVETNGVKDSNKIANFVKNAKK
B8: Beta-xylanase, O68541 (parent)
chain: MNLSRRQLLALTSAGIAMGQASKLAAATKAAEQTGLKSAYKDNFLIGAALNATIASGADERLNTLIAKEFNSITPENCMKWGVLRDAQGQWNWKDADAFVAFGTKHNLHMVGHTLVWHSQIHDEVFKNADGSYISKAALQKKMEEHITTLAGRYKGKLAAWDVVNEAVGDDLKMRDSHWYKIMGDDFIYNAFTLANEVDPKAHLMYNDYNIERTGKREATVEMIERLQKRGMPIHGLGIQGHLGIDTPPIAEIEKSIIAFAKLGLRVHFTELDVDVLPSVWELPVAEVSTRFEYKPERDPYTKGLPQEMQDKLAKRYEDLFKLFIKHSDKIDRATFWGVSDDASWLNGFPIPGRTNYPLLFDRKLQPKDAYFRLLDLKR
B9: N154D, Q8GB52 (parent)
chain: MLKKVLSCCIAATFGIYSASSLAQSSVINSTENSQQPIAPLVLASSDDAITDRYIVVLKQPQMLMNDAAGLQQFTQQTVGLMANSFSIKTDDVFDSSIIGFVANLDALQLKQLRRDSRVEYIEQDQILSIDPVVSNEAVQSNAIWGLDRIDQRNLPLDRNYNANFDGFGVTAYVIDTGVNNNHEEFGGRSVSGYDFVDNDADSSDCNGHGTHVAGTIGGSQYGVAKNVNIVGVRVLSCSGSGTTSGVISGVDWVAQNASGPSVANMSLGGGQSTALDSAVQGAIQSGVSFMLAAGNSNADACNTSPARVPSGVTVGSTTSSDSRSSFSNWGSCVDLFAPGSQIKSAWYDGGYKTISGTSMATPHVAGVAALYLQENNGLTPLQLTGLLNSRASENKVSDTRGTTNKLLYSLADSGCEPDCGGPTPGPDPDGKLVSGVPVNGLSGSRGQKDYFYMDLQQGQQLTVVTIGGTGDADLYLRFGDKPTLNTWDCRPYRSGNSETCTVNVTQSGRYHVMLNAYSAYSGLTLQANF
B10: Cyanovirin-N, P81180 (parent)
chain: LGKFSQTCYNSAIQGSVLTSTCERTNGGYNTSSIDLNSVIENVDGSLKWQPSNFIETCRNTQLAGSSELAAECKTRAQQFVSTKINLDDHIANIDGTLKYE
B11: Endo-1,4-beta-xylanase 2, P36217 (parent)
chain: MVSFTSLLAGVAAISGVLAAPAAEVESVAVEKRQTIQPGTGYNNGYFYSYWNDGHGGVTYTNGPGGQFSVNWSNSGNFVGGKGWQPGTKNKVINFSGSYNPNGNSYLSVYGWSRNPLIEYYIVENFGTYNPSTGATKLGEVTSDGSVYDIYRTQRVNQPSIIGTATFYQYWSVRRNHRSSGSVNTANHFNAWAQQGLTLGTMDYQIVAVEGYFSSGSASITVS

Variants of: B1
Conditions: Aspergillus oryzae (strain ATCC 42149 / RIB 40); pH 7.4; 25 °C; Urea; Fluorescence; Sodium acetate 50 mM; reversible: yes; structure 1RN1; whole UniProt chain shown

| Variant | denaturant m value [kcal/mol/M] | denaturant midpoint (higher = more stable) [M] | unfolding free energy [kcal/mol] |
| --- | --- | --- | --- |
| A47G G49A | 1.37 | 4.7 | 6 |

Variants of: B2
Conditions: Homo sapiens; pH 7; Thermal; absorbance; Phosphate buffer; transition: 2; reversible: yes; whole UniProt chain shown

| Variant | Tm [°C] | change of melting temperature, mutant - wild type (higher = more stable) [°C] |
| --- | --- | --- |
| C66S | 72.4 | 1.4 |

Same assay, conditions: Homo sapiens; pH 7.4; Thermal; CD; Tris 50 mM; whole UniProt chain shown

| Variant | Tm [°C] | change of melting temperature, mutant - wild type (higher = more stable) [°C] |
| --- | --- | --- |
| C66S | 60.1 | 2.2 |

Variants of: B3
Conditions: Escherichia coli (strain K12); pH 7.5; 25 °C; Urea; enzyme activity; potassium phosphate 20 mM; structure 1AMQ; whole UniProt chain shown

| Variant | unfolding free energy [kcal/mol] |
| --- | --- |
| C180F | 8.4 |
| C180S | 8.1 |
| C180W | 6.1 |
| C180Y | 7.7 |

Variants of: B4
Conditions: Homo sapiens; Thermal; fluorescence; structure 6U07; whole UniProt chain shown

| Variant | Tm [°C] | change of melting temperature, mutant - wild type (higher = more stable) [°C] |
| --- | --- | --- |
| T132I | 55.7 | 0.8 |
| S121F | 58.5 | 5.2 |
| D151S | 53.3 | -1.6 |

Variants of: B5
Conditions: Rattus norvegicus; pH 5; 25 °C; Urea; Fluorescence; Sodium acetate 50 mM; reversible: yes; structure 1HNG; whole UniProt chain shown

| Variant | ddG of mutation (higher = less stable) [kcal/mol] |
| --- | --- |
| Y98F | -1.49 |

Variants of: B6
Conditions: Saccharomyces cerevisiae (strain ATCC 204508 / S288c); Thermal; Fluorescence; structure 1JK9; whole UniProt chain shown

| Variant | change of melting temperature, mutant - wild type (higher = more stable) [°C] |
| --- | --- |
| G94A | 20 |

Variants of: B7
Conditions: Saccharomyces cerevisiae (strain ATCC 204508 / S288c); pH 6.5; 23 °C; GdnHCl; CD; Potassium phosphate 0.05 M; reversible: yes; whole UniProt chain shown

| Variant | ddG of mutation (higher = less stable) [kcal/mol] |
| --- | --- |
| S212C | 1 |

Variants of: B8
Conditions: Cellvibrio mixtus; pH 7.5; Thermal; DSC; MOPS 20 mM; CaCl2 1 mM; reversible: No; structure 1UR1; whole UniProt chain shown

| Variant | Tm [°C] | change of melting temperature, mutant - wild type (higher = more stable) [°C] |
| --- | --- | --- |
| G348D | 64.6 | 6 |
| A334V | 62.1 | 3.5 |
| A334V G348D | 66.6 | 8 |

Variants of: B9
Conditions: Vibrio sp. PA-44; pH 8.6; Thermal; CD; Glycine 25 mM; NaCl and CaCl2 100 mM and 15 mM; structure 1SH7; whole UniProt chain shown

| Variant | Tm | change of melting temperature, mutant - wild type (higher = more stable) |
| --- | --- | --- |
| N154D | 66.3 °C and 68.2 °C | 2.7 °C and 3.1 °C |
| N154D K396R | 65.1 °C | 1.5 °C |

Variants of: B10
Conditions: Nostoc ellipsosporum; pH 6; Thermal; CD; Sodium phosphate 10 mM; structure 1N02; whole UniProt chain shown

| Variant | Tm [°C] | change of melting temperature, mutant - wild type (higher = more stable) [°C] |
| --- | --- | --- |
| P51G | 50.2 | 1.7 |

Variants of: B11
Conditions: Hypocrea jecorina (strain ATCC 56765 / BCRC 32924 / NRRL 11460 / Rut C-30); pH 5; Thermal; DSC; citrate - phosphate buffer 50 mM; structure 1ENX; whole UniProt chain shown

| Variant | Tm [°C] | change of melting temperature, mutant - wild type (higher = more stable) [°C] |
| --- | --- | --- |
| T35C T61C K91R | 72.5 | 11.1 |
